The source of these data is US20220098319A1 (SHANGHAI PHARMAEXPLORER, published 2022).

What is called Kd is the equilibrium constant for the complex coming apart. The koff is the rate constant with which the complex falls apart. What is called kon is a measure of how fast the partners come together. In general, EC50 refers to the concentration that produces a half-maximal response.

Changes are numbered by the printed parent chain. A value given as a limit tells only on which side of the number the result lay.

The labels stand for the following.
T1: His-tagged CD73 extracellular domain protein (hCD73 ECD-His) (human, UniProt P21589 27-547)
T1 construct: Expressed in CHO cells from pTT5-hCD73 ECD-His6, purified on nickel column; also called hCD73 ECD-His6; human CD73 ECD
T1 sequence: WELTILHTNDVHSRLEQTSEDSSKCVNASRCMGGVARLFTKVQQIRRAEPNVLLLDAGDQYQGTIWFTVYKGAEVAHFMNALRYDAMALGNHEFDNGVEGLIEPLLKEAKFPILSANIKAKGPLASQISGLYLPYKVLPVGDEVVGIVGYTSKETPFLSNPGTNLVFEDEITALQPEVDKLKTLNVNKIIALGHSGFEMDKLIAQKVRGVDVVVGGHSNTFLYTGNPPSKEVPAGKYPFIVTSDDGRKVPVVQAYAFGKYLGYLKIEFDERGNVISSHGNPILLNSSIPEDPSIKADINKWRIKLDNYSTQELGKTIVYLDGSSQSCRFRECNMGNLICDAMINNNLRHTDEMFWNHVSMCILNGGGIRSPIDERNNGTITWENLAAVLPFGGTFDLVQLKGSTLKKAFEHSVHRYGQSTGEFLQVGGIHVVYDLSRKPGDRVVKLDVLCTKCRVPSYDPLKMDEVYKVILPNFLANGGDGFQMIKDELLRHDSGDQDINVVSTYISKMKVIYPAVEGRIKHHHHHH

T2: human CD73 (full length, on transfected CHOK1 cells) (human, UniProt P21589 27-549)
T2 construct: whole, on cells; The same id is used for CD73 on human CD4+ T cells in the proliferation assays; also called CHOK1-hCD73; hCD73
T2 sequence (looked up): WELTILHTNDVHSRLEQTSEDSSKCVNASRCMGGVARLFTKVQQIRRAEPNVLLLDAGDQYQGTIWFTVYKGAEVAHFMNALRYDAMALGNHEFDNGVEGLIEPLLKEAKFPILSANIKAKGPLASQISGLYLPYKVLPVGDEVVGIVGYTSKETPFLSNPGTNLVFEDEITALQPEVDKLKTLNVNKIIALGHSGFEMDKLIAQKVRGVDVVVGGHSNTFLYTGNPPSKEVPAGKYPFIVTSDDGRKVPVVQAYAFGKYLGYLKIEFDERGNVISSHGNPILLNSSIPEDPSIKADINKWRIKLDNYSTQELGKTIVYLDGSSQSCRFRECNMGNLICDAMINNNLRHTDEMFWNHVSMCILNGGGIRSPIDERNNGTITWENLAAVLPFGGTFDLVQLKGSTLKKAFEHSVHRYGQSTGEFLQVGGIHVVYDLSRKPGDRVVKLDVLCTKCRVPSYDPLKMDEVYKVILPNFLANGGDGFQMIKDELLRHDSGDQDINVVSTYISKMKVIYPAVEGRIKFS

T3: murine CD73 (on transfected CHOK1 cells) (mouse, UniProt Q61503 29-551)
T3 construct: whole, on cells; also called CHOK1-mCD73; mCD73
T3 sequence (looked up): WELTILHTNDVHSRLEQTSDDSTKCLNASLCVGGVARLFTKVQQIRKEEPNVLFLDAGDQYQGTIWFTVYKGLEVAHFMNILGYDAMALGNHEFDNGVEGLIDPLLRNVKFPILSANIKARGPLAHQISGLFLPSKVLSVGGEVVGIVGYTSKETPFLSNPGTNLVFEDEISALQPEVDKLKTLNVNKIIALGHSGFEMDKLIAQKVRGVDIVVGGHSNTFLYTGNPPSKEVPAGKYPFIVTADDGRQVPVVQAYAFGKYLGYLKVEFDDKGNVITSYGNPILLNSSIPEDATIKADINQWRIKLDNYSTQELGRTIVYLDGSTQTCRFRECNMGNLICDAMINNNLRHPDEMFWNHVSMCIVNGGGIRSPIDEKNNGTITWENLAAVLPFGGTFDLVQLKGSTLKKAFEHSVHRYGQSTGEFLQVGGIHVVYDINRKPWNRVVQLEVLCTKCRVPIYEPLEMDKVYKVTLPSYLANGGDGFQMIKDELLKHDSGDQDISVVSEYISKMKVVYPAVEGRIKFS

T4: cynomolgus monkey CD73 (on transfected CHOK1 cells) (cynomolgus monkey, UniProt A0A2K5V5U7 27-549)
T4 construct: whole, on cells; also called CHOK1-cCD73; CHOK1-CCD73
T4 sequence: T2 sequence (looked up) with M199T, T350A, V466I

B1: mab042xhIgG1TM (clone 77B9A3), mouse-human chimeric anti-CD73 antibody (antibody, V domains shown)
VH: QVQLQQSGAGLVKPGASVKLSCKASGYTFTNYWMHWVKQRPGQGLEWIGMIHPNSGSTNNNEKFKNKATLTVDKSSNTAYMQLSSLTSEDSAVYYCARFFFGGYPHYYALDYWGQGTSVTVSS
VL: DIVMTQSQKFMSTTVGDRVSITCKASQNVGTAVAWYQQKPGQSPKLLIYSASDRYTGVPDRLTGSGSGTDFTLTISNVQSEDLADYFCQQYSSFPLFTFGSGTKLVIQ
notes: also called mAb042 chimeric antibody
B2: mab038xhIgG1TM (clone 69C9E12), mouse-human chimeric anti-CD73 antibody (antibody, V domains shown)
VH: QVQLQQPGTELVNPGASVKLSCKASGYTFTSYWMHWVKQRPGQGLEWIGNINPSNGGTHYNEKFNNKATLTVDKSSSTAYMQLSSLTSEDSAVFYCARGDYAYDWYFTVWGTGTTVTVSS
VL: DIVLTQSPASLAVSLGQRAIISCKASQSVSFAGTGLMHWYQQKPGQQPKLLIYRVSNLEAGIPTRFSGSGSRTDFTLNIHPVEEDDAATYYCQQNREFPWTFGGGTKLEIK
notes: also called mAb038 chimeric antibody
B3: mab041xhIgG1TM (clone 71E10B3), mouse-human chimeric anti-CD73 antibody (antibody, V domains shown)
VH: QVQLQQPGTELVKPGASVKLSCKASGYTFTSYWMHWVKQRPGQGLEWIGNINPSNGGTNYNQKFKSKATLTVDKSSNTASMQLSSLTSEDSAVYYCARGDYGYDWYLDVWGTGTTVTVSS
VL: B2 VL with T34P, G35S, V55T, I62V, R72G
notes: also called mAb041 chimeric antibody
B4: mab036xhIgG1TM (clone 66H6C12), mouse-human chimeric anti-CD73 antibody (antibody, V domains shown)
VH: QVQLQQSGAEVVKPGASVKISCKASGYVFSSYWINWVKQRPGKGLEWIGKIFPGNGDTDYNGNFKGKATLTADKSSSTAYMQLSSLTSEDSAVYFCAGFADWGQGTLVTVSA
VL: DIQMTQSPSSLSASLGERVSLTCRASQDIGERLIWLQQEPDGTFKRLIYATSSLDSGVPKRFSGSSSGSDYSLTISRLESEDFVDYYCLQYASSPYTFGGGTKLEIK
notes: also called mAb036 chimeric antibody
B5: mab034xhIgG1TM (clone 60G1C8), mouse-human chimeric anti-CD73 antibody (antibody, V domains shown)
VH: DVQLQESGPGLVKPSQSLSLTCSVTGYSITSRYYWNWIRQFPGNKLEWMGYMTYDGTNNYNPSLTNRISITRDTSKNQFFLKLNSVTAEDTATYFCARGGWDPFDYWGQGTTLTVSS
VL: DIQMTQSPAALSASVGETVTITCRASDNIYSYLAWYQQKQGKCPQLLVKNAKTLAEGVPSRFSGSGSGTQFSLRINSLQPDDFGTYYCQHYYGTPLTFGAGTKLELK
notes: also called mAb034 chimeric antibody
B6: mab044xhIgG1TM (clone 80H7D6), mouse-human chimeric anti-CD73 antibody (antibody, V domains shown)
VH: EVKLVESGGGLVQPGGSLRLSCAASGFTFTDYYMSWVRQPPGKALEWLGFIRNKADGSTTEYSASVKGRFTISRDNSQSILYLQMNALRPEDSATYYCTRSPIYFDNWYFDVWGTGTTVTVSS
VL: DIVMSQSPSSLAVSVGEKVTMTCKSSQSLLYSNNQKNYLAWYQQKPGQSPKLLIYWASTRESGVPDRFTGSGSGTDFTLTLSSVKAEDLAVYYCQQYYSYPFTFGSGTKLEIK
notes: also called mAb044 chimeric antibody

The target in one assay is T1, His-tagged CD73 extracellular domain …. As to the kind of experiment: Octet BLI, antibody on AHC sensor, antigen 50-200 nM, 1:1 fit. An excerpt:
Octet Red 96 was selected as the test instrument, and AHC biosensor was selected as the test sensor in this experiment. Anti-human IgG Fc antibody has been immobilized on the AHC sensor, which can be used to directly capture the 15 antibodies in this experiment. Then the sensor was immersed in the analysis sample (antigen). There were five steps in this experiment: 1, Baseline (120 s) 2, Loading (capture antibody) (300 s) 3, Baseline (120 s) 4, Association (binding antigen) (180 s) 5, Dissociation (antigen dissociation) (1200 s). After the test was completed, the regeneration buffer (Glycine PH1.5) and the neutralization buffer (1*PBS buffer) were alternately immersed for 5 seconds, and the sensor was regenerated by a total of five cycles. The maximum number of sensor regeneration times is 10. The running buffer in this experiment is the sample diluent (1*PBS buffer containing 0.02% Tween20 and 0.1% BSA), that is, the buffer used in the Baseline step, the Dissociation step, and the blank analyte sample. Four sensors are used at one running in this experiment.
Sample treatment: all the antibodies were diluted to the working concentration of 10 ug/ml with sample diluent (1*PBS buffer containing 0.02% Tween20 and 0.1% BSA), and the analyte samples (antigens) were diluted to three working concentrations: 200 nM, 100 nM and 50 nM.
For data analysis, Octet Data Analysis (version 7.0) was used to calculate the response signal value (the signal of the coupled analyte sample minus the signal of the blank analyte sample), and a 1:1 binding model was used to fit the data.
For orientation: BLI is a label-free optical method that tracks binding on a fibre tip over time.
Take B1: the affinity, expressed as Kd, was 0.0592 nM; the koff amounted to 2.73e-05 s⁻¹; the kon was 461000 M⁻¹ s⁻¹.
The molecule B2 came in with a Kd of 0.124 nM, a dissociation rate constant (koff) of 2.97e-05 s⁻¹ and a kon of 240000 M⁻¹ s⁻¹.
Taken in the same sequence, the figures for B3 were 0.298 nM, 4.41e-05 s⁻¹ and 148000 M⁻¹ s⁻¹.
B4: binding was put at a Kd of 0.0213 nM, the koff worked out at 6.42e-06 s⁻¹ and the kon worked out at 301000 M⁻¹ s⁻¹.
For B5, in that order: 0.0577 nM, 2.36e-05 s⁻¹ and 409000 M⁻¹ s⁻¹.
Taken in the same sequence, the figures for B6 were 0.086 nM, 3.29e-05 s⁻¹ and 383000 M⁻¹ s⁻¹.

Another assay addresses T2, human CD73 (full length, on transfected …). Kind of assay: FACS on CHOK1-hCD73 cells.
With B1, the EC50 came to 2.3 nM and the “MAX MFI fold” value came out at 136 fold.
For B2, in that order: 1.8 nM and 120 fold.
For B3, in that order: 1.3 nM and 127 fold.
For the molecule B4, the EC50 stood at 2 nM and the “MAX MFI fold” value was 125 fold.
For B5, in that order: 5.7 nM and 154 fold.
Taken in the same sequence, the figures for B6 were above 10 nM and above 150 fold.

Another assay deals with T3, murine CD73 (on transfected CHOK1 cells). As to the kind of experiment: FACS on CHOK1-mCD73 cells.
For B1, the binding result is recorded as “no binding”.
For the molecule B2, the binding result is “no binding”.
On the same count and under the same terms, for B3 the value was “no binding”; for B4, “no binding”.
Regarding B5, the binding result is listed as “no binding”.
On the same count and under the same terms, for B6 the value was “no binding”.

For the next assay, the target named is T2, human CD73 (full length, on transfected …). Kind of assay: cell-based or functional assay.
As for B1, the “Inhibition assay of enzyme activity, IC50” value (from here on “Inhibition assay … IC50”) came to 0.5 nM and the “Inhibition assay of enzyme activity, MAX % inhibition” value (“Inhibition assay … MAX % inhibition” below) stood at 66.3%.
Taken in the same sequence, the figures for B2 were 0.8 nM and 52.4%.
For B3, in that order: 0.7 nM and 54.4%.
Taken in the same sequence, the figures for B4 were 0.3 nM and 60.6%.
Consider B5, for which the “Inhibition assay … IC50” value worked out at 0.2 nM and the “Inhibition assay … MAX % inhibition” value turned out to be 61.5%.
B6: the “Inhibition assay … IC50” value was determined as 0.1 nM and the “Inhibition assay … MAX % inhibition” value was 49.1%.

In a further assay the target is T4, cynomolgus monkey CD73 (on transfected …). Kind of assay: FACS on CHOK1-cCD73 cells.
For B1, the concentration for a half-maximal effect (EC50) came out at 5.9 nM and the “MAX MFI fold” value was 132 fold.
For B2, in that order: 2.3 nM and 167 fold.
Regarding B3, the EC50 amounted to 2 nM and the “MAX MFI fold” value amounted to 167 fold.
B4: the EC50 was found to be 1.5 nM and the “MAX MFI fold” value is 90.2 fold.
Consider B5, for which the EC50 is above 10 nM and the “MAX MFI fold” value is above 150 fold.
Taken in the same sequence, the figures for B6 were 7.6 nM and 174 fold.
